B1: IIICS, variably-spliced domain of fibronectin (other, human)
chain: MGSDELPQLVTLPHPNLHGPEILDVPSTVQKTPFVTHPGYDTGNGIQLPGTSGQQPSVGQQMIFEEHGFRRTTPPTTATPIRHRPRPYPPNVGEEIQIGHIPREDVDYHLYPHGPGLNPNASTTSHHHHHHC
notes: domain: IIICS; The IIICS construct is not described separately
B2: EGF (ligand, UniProt P01133 971-1023, looked up)
chain: NSDSECPLSHDGYCLHDGVCMYIEALDKYACNCVVGYIGERCQYRDLKWWELR

What was measured:
[1] = target: B2; experiment: equilibrium and kinetic binding
[2] = target: FGF-1 (UniProt P05230 16-155, limits assumed); experiment: equilibrium and kinetic binding
[3] = target: TGF-α (UniProt P01135 40-89); experiment: equilibrium and kinetic binding
[4] = target: T1, basic fibroblast growth factor (bFGF, FGF-2) (human, UniProt P09038 143-288, limits assumed); experiment: peptide binding to the GF
[5] = target: T1, basic fibroblast growth factor (bFGF, …); experiment: method not restated in the sentence
[6] = target: T1, basic fibroblast growth factor (bFGF, …); experiment: equilibrium or kinetic binding, not said which
[7] = target: T2, FNIII12-14 (human, UniProt P02751 1812-2082); experiment: binding to FN functional domains
T2 construct: domain: FNIII12-14; Recombinant

[8] = target: B1; experiment: binding to FN functional domains
[9] = target: T3, FNIII12-15 (H), heparinII-binding domain of fibronectin (human, UniProt P02751-10 1631-1987); experiment: binding to FN functional domains
T3 construct: domain: FNIII12-15; Recombinant

[10] = target: T4, FNIII2 (human, UniProt P02751 722-812, limits assumed); experiment: binding to FN functional domains
T4 construct: domain: FNIII2; Recombinant

[11] = target: T5, FNIII1-11 (human, UniProt P02751-8 610-1630); experiment: binding to FN functional domains
T5 construct: domain: FNIII1-11; Recombinant

[12] = target: T6, FNIII1-2 (human, UniProt P02751 610-812, limits assumed); experiment: binding to FN functional domains
T6 construct: domain: FNIII1-2; Recombinant

[13] = target: T7, FNIII1 (human, UniProt P02751 610-702, limits assumed); experiment: binding to FN functional domains
T7 construct: domain: FNIII1; Recombinant; also called FNIIII [sic]

[14] = target: T8, FNIII12-V15 (HV), composite heparinII-binding and variably-spliced IIICS domains of fibronectin (human, UniProt P02751 1812-2288); experiment: plasmon resonance modulation
T8 construct: domain: FNIII12-V15; Recombinant, from E. coli; Some constructs carry GST at the C-terminus

[15] = target: T9, intact human plasma fibronectin (FN) (human, UniProt P02751 32-2477); experiment: equilibrium binding to FN adsorbed to a surface or coupled to agarose beads
T9 construct: Adsorbed to plastic or coupled to agarose beads in the assays; The background calls plasma FN a disulfide-linked dimer; also called intact FN

[16] = target: T10, FNIII3-6 (human, UniProt P02751 813-1175, limits assumed); experiment: equilibrium and kinetic binding
T10 construct: domain: FNIII3-6; Recombinant; also called FNII3-6 [sic]

[17] = target: T11, FN70, the 70 kDa amino terminus of fibronectin (UniProt P02751 32-608, limits assumed); experiment: equilibrium and kinetic binding
T11 construct: domain: FN70 (70 kDa amino terminus); also called amino-terminal end of FN

[18] = target: T12, FNIII1-7 (human, UniProt P02751 610-1266, limits assumed); experiment: equilibrium and kinetic binding
T12 construct: domain: FNIII1-7; This construct is not described separately

[19] = target: T13, FNIII8-11 (C), classic cell-binding domain of fibronectin containing RGD (human, UniProt P02751 1358-1721); experiment: equilibrium and kinetic binding
T13 construct: domain: FNIII8-11; Recombinant

[20] = target: T9, intact human plasma fibronectin (FN); experiment: competition: I-125 TGF-β1 bound to intact human plasma FN adsorbed on plastic (0.125 µM, blocked with 2% BSA), 25°C, 2 h, with rising peptide; % of binding without peptide, n=3 [left panel]
Experimental: (§1) Figure 9: FIG. 9. Inhibition of TGF-β1 and PDGF-BB binding to intact human plasma FN with TGF-β1 and PDGF-BB FN-binding peptides, respectively. FN was adsorbed onto tissue culture plastic at a concentration of 0.125 μM and then excess protein-binding sites of the plastic blocked with 2% bovine serum albumin. Growth factor labeled with I^125 was incubated with FN-coated plates at 25° C. for 2 hours in the presence or absence of peptide. Data was calculated as [(GF binding in presence of peptide–background)/(GF binding in absence of peptide-background)]×100. n=3.
(§2) Two of these synthetic peptides (homologous to TGF-β1 and homologous to PDGF-BB) inhibit TGF-β1 and PDGF-BB binding to FN respectively (FIG. 9). Inhibition of TGF-β1 and PDGF-BB binding to intact human plasma FN was determined as follows. FN was adsorbed onto tissue culture plastic at a concentration of 0.125 μM and then excess protein-binding sites of the plastic blocked with 2% bovine serum albumin. Growth factor labeled with I^125 was incubated with FN-coated plates at 25° C. for 2 hours in the presence or absence of peptide. For example, relative binding of TGF-β1 to immobilized FN was determined for increasing concentrations of the synthetic peptide homologous to TGF-β1. […] For example, relative binding of PDGF-BB to immobilized FN was determined for increasing concentrations of the synthetic peptide homologous to PDGF-BB. […]

[21] = target: T9, intact human plasma fibronectin (FN); experiment: competition: I-125 PDGF-BB bound to intact human plasma FN adsorbed on plastic (0.125 µM, blocked with 2% BSA), 25°C, 2 h, with rising peptide; % of binding without peptide, n=3 [right panel]
Experimental: as §1, §2

T1 sequence (P09038 143-288 limits assumed): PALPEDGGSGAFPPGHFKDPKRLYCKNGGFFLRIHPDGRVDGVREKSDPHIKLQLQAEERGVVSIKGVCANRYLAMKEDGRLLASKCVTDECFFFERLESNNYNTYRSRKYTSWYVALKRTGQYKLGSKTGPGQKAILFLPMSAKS
Sequence of TGF-α (P01135 40-89 limits assumed): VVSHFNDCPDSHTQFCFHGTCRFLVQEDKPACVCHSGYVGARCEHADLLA
T9 sequence (P02751 other isoform, or with tags, fused parts or gaps limits assumed): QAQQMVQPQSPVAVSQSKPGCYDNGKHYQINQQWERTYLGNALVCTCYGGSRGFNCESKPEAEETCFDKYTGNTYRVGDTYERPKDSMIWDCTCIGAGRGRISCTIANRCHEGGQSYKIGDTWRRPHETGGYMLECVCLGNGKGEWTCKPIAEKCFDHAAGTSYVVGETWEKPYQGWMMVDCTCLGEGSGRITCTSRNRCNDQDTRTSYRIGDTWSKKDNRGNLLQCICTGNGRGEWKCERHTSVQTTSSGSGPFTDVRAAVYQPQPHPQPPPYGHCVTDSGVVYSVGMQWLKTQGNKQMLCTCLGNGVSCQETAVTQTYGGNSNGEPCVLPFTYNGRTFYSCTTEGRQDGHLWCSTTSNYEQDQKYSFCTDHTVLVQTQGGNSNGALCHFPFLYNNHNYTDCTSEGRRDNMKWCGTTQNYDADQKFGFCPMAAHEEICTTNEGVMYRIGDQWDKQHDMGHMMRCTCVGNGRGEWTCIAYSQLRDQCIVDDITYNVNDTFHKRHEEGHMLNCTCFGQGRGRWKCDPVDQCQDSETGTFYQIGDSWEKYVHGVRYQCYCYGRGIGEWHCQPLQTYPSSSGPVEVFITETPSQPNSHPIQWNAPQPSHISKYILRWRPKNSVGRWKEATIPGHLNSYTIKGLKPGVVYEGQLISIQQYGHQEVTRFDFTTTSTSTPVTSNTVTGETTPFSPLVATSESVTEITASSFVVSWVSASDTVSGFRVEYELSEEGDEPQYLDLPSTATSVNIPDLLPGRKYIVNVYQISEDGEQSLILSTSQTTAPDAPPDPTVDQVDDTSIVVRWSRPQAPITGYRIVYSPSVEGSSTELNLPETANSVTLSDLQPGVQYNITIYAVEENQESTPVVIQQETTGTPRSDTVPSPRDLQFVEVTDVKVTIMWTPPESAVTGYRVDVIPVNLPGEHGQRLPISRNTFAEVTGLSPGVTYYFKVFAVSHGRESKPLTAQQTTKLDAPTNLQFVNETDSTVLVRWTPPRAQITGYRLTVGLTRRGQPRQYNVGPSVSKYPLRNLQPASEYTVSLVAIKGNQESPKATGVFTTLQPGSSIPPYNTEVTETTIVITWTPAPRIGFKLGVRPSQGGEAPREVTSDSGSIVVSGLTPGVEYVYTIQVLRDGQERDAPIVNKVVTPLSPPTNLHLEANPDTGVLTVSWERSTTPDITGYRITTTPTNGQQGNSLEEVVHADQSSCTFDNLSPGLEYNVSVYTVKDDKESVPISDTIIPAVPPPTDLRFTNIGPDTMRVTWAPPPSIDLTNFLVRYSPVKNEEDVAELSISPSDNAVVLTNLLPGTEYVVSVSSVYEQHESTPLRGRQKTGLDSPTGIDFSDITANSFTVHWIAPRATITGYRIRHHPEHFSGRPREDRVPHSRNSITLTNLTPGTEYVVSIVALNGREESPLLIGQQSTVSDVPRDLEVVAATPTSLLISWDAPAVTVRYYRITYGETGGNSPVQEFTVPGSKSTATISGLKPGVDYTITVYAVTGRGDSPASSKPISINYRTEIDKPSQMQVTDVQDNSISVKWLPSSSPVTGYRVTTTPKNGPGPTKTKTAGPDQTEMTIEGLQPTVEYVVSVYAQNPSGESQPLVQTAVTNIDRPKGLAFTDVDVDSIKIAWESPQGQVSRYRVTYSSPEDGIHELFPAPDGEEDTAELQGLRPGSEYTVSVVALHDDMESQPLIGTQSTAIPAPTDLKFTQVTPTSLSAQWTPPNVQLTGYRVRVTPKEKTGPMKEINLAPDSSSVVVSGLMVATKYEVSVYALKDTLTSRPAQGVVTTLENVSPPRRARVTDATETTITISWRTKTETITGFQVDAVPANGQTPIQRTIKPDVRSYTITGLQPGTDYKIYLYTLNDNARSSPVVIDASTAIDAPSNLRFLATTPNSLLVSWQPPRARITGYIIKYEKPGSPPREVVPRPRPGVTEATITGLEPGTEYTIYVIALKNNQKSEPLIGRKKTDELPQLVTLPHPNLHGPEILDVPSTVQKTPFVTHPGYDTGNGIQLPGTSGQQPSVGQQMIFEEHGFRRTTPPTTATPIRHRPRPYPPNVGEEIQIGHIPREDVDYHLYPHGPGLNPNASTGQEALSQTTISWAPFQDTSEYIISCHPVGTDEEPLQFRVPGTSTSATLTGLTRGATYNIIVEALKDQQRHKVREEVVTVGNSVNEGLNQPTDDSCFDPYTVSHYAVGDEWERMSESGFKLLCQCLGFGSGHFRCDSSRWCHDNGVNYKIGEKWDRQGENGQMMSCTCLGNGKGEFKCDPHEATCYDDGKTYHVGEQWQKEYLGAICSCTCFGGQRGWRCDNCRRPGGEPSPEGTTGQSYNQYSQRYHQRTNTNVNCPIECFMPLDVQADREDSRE
Sequence of FGF-1 (P05230 16-155 limits assumed): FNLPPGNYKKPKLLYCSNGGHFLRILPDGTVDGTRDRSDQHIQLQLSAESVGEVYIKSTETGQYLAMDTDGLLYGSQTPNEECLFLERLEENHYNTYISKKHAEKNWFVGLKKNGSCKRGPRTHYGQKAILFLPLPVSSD
T2 sequence (P02751 other isoform, or with tags, fused parts or gaps limits assumed): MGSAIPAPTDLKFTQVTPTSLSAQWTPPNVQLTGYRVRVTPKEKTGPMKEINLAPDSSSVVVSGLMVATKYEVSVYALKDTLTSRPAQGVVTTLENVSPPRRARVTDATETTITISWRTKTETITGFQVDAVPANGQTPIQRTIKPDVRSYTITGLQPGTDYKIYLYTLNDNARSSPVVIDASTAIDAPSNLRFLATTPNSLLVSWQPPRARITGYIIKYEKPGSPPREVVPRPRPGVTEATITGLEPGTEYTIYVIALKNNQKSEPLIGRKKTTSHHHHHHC
T6 sequence (P02751 other isoform, or with tags, fused parts or gaps limits assumed): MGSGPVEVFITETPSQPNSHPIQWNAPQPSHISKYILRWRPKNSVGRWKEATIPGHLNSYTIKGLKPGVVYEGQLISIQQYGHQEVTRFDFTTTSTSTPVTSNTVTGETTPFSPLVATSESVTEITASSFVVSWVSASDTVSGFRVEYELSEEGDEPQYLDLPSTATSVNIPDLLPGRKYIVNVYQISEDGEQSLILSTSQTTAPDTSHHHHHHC
T7 sequence (P02751 other isoform, or with tags, fused parts or gaps limits assumed): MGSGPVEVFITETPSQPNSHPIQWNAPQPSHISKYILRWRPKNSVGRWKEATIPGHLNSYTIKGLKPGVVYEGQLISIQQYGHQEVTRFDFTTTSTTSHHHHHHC
T13 sequence (P02751 other isoform, or with tags, fused parts or gaps limits assumed): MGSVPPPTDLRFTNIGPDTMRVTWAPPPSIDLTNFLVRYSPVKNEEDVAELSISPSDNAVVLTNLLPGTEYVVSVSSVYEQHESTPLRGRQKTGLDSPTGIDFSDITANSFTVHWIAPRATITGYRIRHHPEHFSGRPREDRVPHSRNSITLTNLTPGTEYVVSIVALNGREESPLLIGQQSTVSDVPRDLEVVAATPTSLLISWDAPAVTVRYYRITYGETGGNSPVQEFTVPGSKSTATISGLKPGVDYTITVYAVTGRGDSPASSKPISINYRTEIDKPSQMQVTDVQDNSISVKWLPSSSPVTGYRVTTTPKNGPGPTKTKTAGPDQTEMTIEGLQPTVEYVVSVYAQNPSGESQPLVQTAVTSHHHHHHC
T8 sequence (P02751 other isoform, or with tags, fused parts or gaps limits assumed): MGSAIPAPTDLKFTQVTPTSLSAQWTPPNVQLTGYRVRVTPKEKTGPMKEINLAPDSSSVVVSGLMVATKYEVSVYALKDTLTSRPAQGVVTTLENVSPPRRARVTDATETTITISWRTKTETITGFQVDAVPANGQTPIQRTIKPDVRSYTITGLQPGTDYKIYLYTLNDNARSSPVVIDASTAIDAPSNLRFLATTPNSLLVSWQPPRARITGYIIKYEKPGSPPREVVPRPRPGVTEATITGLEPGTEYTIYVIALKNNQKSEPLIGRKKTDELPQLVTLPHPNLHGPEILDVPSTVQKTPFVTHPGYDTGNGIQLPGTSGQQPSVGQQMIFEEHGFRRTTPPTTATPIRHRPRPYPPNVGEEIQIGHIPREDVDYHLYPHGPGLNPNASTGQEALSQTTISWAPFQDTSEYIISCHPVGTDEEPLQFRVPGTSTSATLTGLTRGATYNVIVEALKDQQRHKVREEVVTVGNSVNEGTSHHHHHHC
T10 sequence (P02751 other isoform, or with tags, fused parts or gaps limits assumed): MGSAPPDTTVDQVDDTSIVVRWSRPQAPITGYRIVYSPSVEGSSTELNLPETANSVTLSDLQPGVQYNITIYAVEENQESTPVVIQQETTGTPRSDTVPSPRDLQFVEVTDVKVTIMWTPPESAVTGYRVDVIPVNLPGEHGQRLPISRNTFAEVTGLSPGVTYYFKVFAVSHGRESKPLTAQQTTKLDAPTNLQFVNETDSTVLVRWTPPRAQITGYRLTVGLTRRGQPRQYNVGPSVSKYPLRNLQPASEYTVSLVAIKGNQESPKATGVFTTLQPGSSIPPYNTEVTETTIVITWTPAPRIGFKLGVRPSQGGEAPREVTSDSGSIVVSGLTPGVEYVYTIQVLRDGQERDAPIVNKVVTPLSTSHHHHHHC
T3 sequence (P02751 other isoform, or with tags, fused parts or gaps limits assumed): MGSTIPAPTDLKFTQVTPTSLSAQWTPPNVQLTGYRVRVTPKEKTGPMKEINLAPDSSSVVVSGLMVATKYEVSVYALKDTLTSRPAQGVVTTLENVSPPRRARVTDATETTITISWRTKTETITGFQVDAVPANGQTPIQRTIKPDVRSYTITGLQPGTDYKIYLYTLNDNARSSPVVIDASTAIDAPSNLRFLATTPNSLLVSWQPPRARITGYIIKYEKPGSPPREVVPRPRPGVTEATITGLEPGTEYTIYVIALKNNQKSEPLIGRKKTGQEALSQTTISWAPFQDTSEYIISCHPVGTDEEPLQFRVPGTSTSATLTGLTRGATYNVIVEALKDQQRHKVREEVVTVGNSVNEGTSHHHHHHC

Row | Binder | binding result [1] | binding result [2] | binding result [3] | binding result [4] | also measured
1 | QLISIQQYGHQEVTRFDFTTTSTST (also called P2) [peptide 2 (FN680-704) QLISIQQYGHQEVTRFDFTTTSTST] | no binding | no binding | no binding | binds | –
2 | B1 | – | no binding | – | – | Kd [5]: ~100 nM; Kd [6]: 58 nM
3 | QPSVGQQMIFEEHGFRRTTPPTTAT (also called P4) [peptide 4 (FN2043-2067) QPSVGQQMIFEEHGFRRTTPPTTAT] | no binding | no binding | no binding | binds | –
4 | QPSHISKYILRWRPKNSVGRWKEAT (A Cys-tagged form was used in the FN-null cell assay; also called P1) [peptide 1 (FN634-658) QPSHISKYILRWRPKNSVGRWKEAT] | no binding | no binding | no binding | binds | –
5 | B2 | – | – | – | – | binding result [7]: no binding; binding result [8]: no binding; binding result [9]: no binding; binding result [10]: no binding; binding result [11]: no binding; binding result [12]: no binding; binding result [13]: no binding; binding result [14]: no binding; binding result [15]: no binding; binding result [16]: no binding; binding result [17]: no binding; binding result [18]: no binding; binding result [19]: no binding
6 | CCVRQLYIDFRKDLG [synthetic peptide homologous to TGF-β1, CCVRQLYIDFRKDLG] | – | – | – | – | IC50 (read off the curve) [20]: ~8 µM
7 | NGQTPIQRTIKPDVRSYTITGLQPGT (also called P3; FN1852-877 (so in the source)) [peptide 3 NGQTPIQRTIKPDVRSYTITGLQPGT] | no binding | no binding | no binding | binds | –
8 | CKTRTEVFEISRRLI [synthetic peptide homologous to PDGF-BB, CKTRTEVFEISRRLI] | – | – | – | – | binding result [21]: binds

Reference: patent US8759300 (RESEARCH FOUNDATION FOR THE STATE UNIVERSITY OF NEW YORK, dated 2014)
